± gives the uncertainty stated by the source.
B1: Homeobox protein SIX3, residues 212 to 262; numbered along this chain, O95343 (parent)
chain: CFKERTRSLLREWYLQDPYPNPSKKRELAQATGLTPTQVGNWFKNRRQRDR

Variants of: B1
Assay: abundance fitness (aPCA) (normalised: wild type 0, dead -1); higher = more abundant; growth selection in yeast, the domain comes from the species named
Conditions: Homo sapiens

Row | Variant | abundance fitness
1 | CFKERTRSLLREWYLQDPYPNPSKKRELAQATGLTPTQVINWFKNRRQRDR | -0.247 ± 0.15
2 | CFKERTRSLLREWYLQDPYPNPSKKRELAQATGLTPTQVTNWFKNRRQRDR | -0.183 ± 0.089
3 | CFKERTRSLLREWYLQDPYPNPSKKRELAQATGLTPTQHGNWFKNRRQRDR | -0.998 ± 0.32
4 | CFKERTRSLLREWYLQDPYPNPSKKRELAQATGLTPTQYGNWFKNRRQRDR | -0.897 ± 0.28
5 | CFKERTRSLLREWYLQDPYPNPSKKRELAQATGLTPTQTGNWFKNRRQRDR | -0.573 ± 0.1
6 | CFKERTRSLLREWYLQDPYPNPSKKRELAQATGLTPTQPGNWFKNRRQRDR | -0.972 ± 0.12
7 | CFKERTRSLLREWYLQDPYPNPSKKRELAQATGLTPTQQGNWFKNRRQRDR | -0.78 ± 0.067
8 | CFKERTRSLLREWYLQDPYPNPSKKRELAQATGLTPTQSGNWFKNRRQRDR | -0.916 ± 0.083
9 | CFKERTRSLLREWYLQDPYPNPSKKRELAQATGLTPTQEGNWFKNRRQRDR | -0.96 ± 0.099
10 | CFKERTRSLLREWYLQDPYPNPSKKRELAQATGLTPTQLGNWFKNRRQRDR | -0.84 ± 0.08
11 | CFKERTRSLLREWYLQDPYPNPSKKRELAQATGLTPTQCGNWFKNRRQRDR | -0.969 ± 0.37
12 | CFKERTRSLLREWYLQDPYPNPSKKRELAQATGLTPTQNGNWFKNRRQRDR | -1.01 ± 0.24
13 | CFKERTRSLLREWYLQDPYPNPSKKRELAQATGLTPTQAGNWFKNRRQRDR | -0.829 ± 0.088
14 | CFKERTRSLLREWYLQDPYPNPSKKRELAQATGLTPTQGGNWFKNRRQRDR | -0.731 ± 0.083
15 | CFKERTRSLLREWYLQDPYPNPSKKRELAQATGLTPTQKGNWFKNRRQRDR | -0.945 ± 0.19
16 | CFKERTRSLLREWYLQDPYPNPSKKRELAQATGLTPTQDGNWFKNRRQRDR | -0.893 ± 0.074
17 | CFKERTRSLLREWYLQDPYPNPSKKRELAQATGLTPTQFGNWFKNRRQRDR | -0.848 ± 0.25
18 | CFKERTRSLLREWYLQDPYPNPSKKRELAQATGLTPTQRGNWFKNRRQRDR | -0.873 ± 0.064
19 | CFKERTRSLLREWYLQDPYPNPSKKRELAQATGLTPTQVGIWFKNRRQRDR | -0.627 ± 0.24
20 | CFKERTRSLLREWYLQDPYPNPSKKRELAQATGLTPTQVGAWFKNRRQRDR | -0.496 ± 0.2
21 | CFKERTRSLLREWYLQDPYPNPSKKRELAQATGLTPTQVGCWFKNRRQRDR | -0.459 ± 0.17
22 | CFKERTRSLLREWYLQDPYPNPSKKRELAQATGLTPTQVGPWFKNRRQRDR | -0.614 ± 0.29
23 | CFKERTRSLLREWYLQDPYPNPSKKRELAQATGLTPTQVGLWFKNRRQRDR | -0.516 ± 0.12
24 | CFKERTRSLLREWYLQDPYPNPSKKRELAQATGLTPTQVGSWFKNRRQRDR | -0.204 ± 0.1
25 | CFKERTRSLLREWYLQDPYPNPSKKRELAQATGLTPTQVGHWFKNRRQRDR | -0.168 ± 0.16
26 | CFKERTRSLLREWYLQDPYPNPSKKRELAQATGLTPTQVGKWFKNRRQRDR | 0.252 ± 0.093

Row | Variant | abundance fitness
27 | CFKERTRSLLREWYLQDPYPNPSKKRELAQATGLTPTQVGGWFKNRRQRDR | -0.55 ± 0.12
28 | CFKERTRSLLREWYLQDPYPNPSKKRELAQATGLTPTQVGVWFKNRRQRDR | -0.325 ± 0.12
29 | CFKERTRSLLREWYLQDPYPNPSKKRELAQATGLTPTQVGMWFKNRRQRDR | -0.286 ± 0.12
30 | CFKERTRSLLREWYLQDPYPNPSKKRELAQATGLTPTQVGQWFKNRRQRDR | -0.402 ± 0.12
31 | CFKERTRSLLREWYLQDPYPNPSKKRELAQATGLTPTQVGDWFKNRRQRDR | -0.497 ± 0.2
32 | CFKERTRSLLREWYLQDPYPNPSKKRELAQATGLTPTQVGRWFKNRRQRDR | 0.142 ± 0.065
33 | CFKERTRSLLREWYLQDPYPNPSKKRELAQATGLTPTGVGNWFKNRRQRDR | -0.761 ± 0.1
34 | CFKERTRSLLREWYLQDPYPNPSKKRELAQATGLTPTEVGNWFKNRRQRDR | -0.606 ± 0.19
35 | CFKERTRSLLREWYLQDPYPNPSKKRELAQATGLTPTLVGNWFKNRRQRDR | -0.64 ± 0.052
36 | CFKERTRSLLREWYLQDPYPNPSKKRELAQATGLTPTAVGNWFKNRRQRDR | -0.338 ± 0.068
37 | CFKERTRSLLREWYLQDPYPNPSKKRELAQATGLTPTPVGNWFKNRRQRDR | -1.13 ± 0.18
38 | CFKERTRSLLREWYLQDPYPNPSKKRELAQATGLTPTRVGNWFKNRRQRDR | -0.802 ± 0.067
39 | CFKERTRSLLREWYLQDPYPNPSKKRELAQATGLTPTIVGNWFKNRRQRDR | -0.733 ± 0.31
40 | CFKERTRSLLREWYLQDPYPNPSKKRELAQATGLTPTSVGNWFKNRRQRDR | -0.676 ± 0.077
41 | CFKERTRSLLREWYLQDPYPNPSKKRELAQATGLTPTDVGNWFKNRRQRDR | -0.937 ± 0.38
42 | CFKERTRSLLREWYLQDPYPNPSKKRELAQATGLTPTKVGNWFKNRRQRDR | -0.886 ± 0.2
43 | CFKERTRSLLREWYLQDPYPNPSKKRELAQATGLTPTNVGNWFKNRRQRDR | -0.728 ± 0.24
44 | CFKERTRSLLREWYLQDPYPNPSKKRELAQATGLTPTHVGNWFKNRRQRDR | -0.81 ± 0.23
45 | CFKERTRSLLREWYLQDPYPNPSKKRELAQATGLTPTTVGNWFKNRRQRDR | -0.43 ± 0.15
46 | CFKERTRSLLREWYLQDPYPNPSKKRELAQATGLTPTCVGNWFKNRRQRDR | -0.393 ± 0.15
47 | CFKERTRSLLREWYLQDPYPNPSKKRELAQATGLTPTMVGNWFKNRRQRDR | -0.619 ± 0.09
48 | CFKERTRSLLREWYLQDPYPNPSKKRELAQATGLTPTWVGNWFKNRRQRDR | -0.774 ± 0.081
49 | CFKERTRSLLREWYLQDPYPNPSKKRELAQATGLTPTFVGNWFKNRRQRDR | -0.663 ± 0.43
50 | CFKERTRSLLREWYLQDPYPNPSKKRELAQATGLTPTVVGNWFKNRRQRDR | -0.418 ± 0.058
51 | CFKERTRSLLREWYLQDPYPNPSKKRELAQATGLYPTQVGNWFKNRRQRDR | -0.826 ± 0.12

Reference: the Human Domainome abundance scans (Beltran et al. 2025)
